Measurements reported in IntAct's records for PubMed 31515488.

B1: Calcium-binding and coiled-coil domain-containing protein 2 (Homo sapiens), Q13137 (parent)
chain: MEETIKDPPTSAVLLDHCHFSQVIFNSVEKFYIPGGDVTCHYTFTQHFIPRRKDWIGIFRVGWKTTREYYTFMWVTLPIDLNNKSAKQQEVQFKAYYLPKDDEYYQFCYVDEDGVVRGASIPFQFRPENEEDILVVTTQGEVEEIEQHNKELCKENQELKDSCISLQKQNSDMQAELQKKQEELETLQSINKKLELKVKEQKDYWETELLQLKEQNQKMSSENEKMGIRVDQLQAQLSTQEKEMEKLVQGDQDKTEQLEQLKKENDHLFLSLTEQRKDQKKLEQTVEQMKQNETTAMKKQQELMDENFDLSKRLSENEIICNALQRQKERLEGENDLLKRENSRLLSYMGLDFNSLPYQVPTSDEGGARQNPGLAYGNPYSGIQESSSPSPLSIKKCPICKADDICDHTLEQQQMQPLCFNCPICDKIFPATEKQIFEDHVFCHSL
partner: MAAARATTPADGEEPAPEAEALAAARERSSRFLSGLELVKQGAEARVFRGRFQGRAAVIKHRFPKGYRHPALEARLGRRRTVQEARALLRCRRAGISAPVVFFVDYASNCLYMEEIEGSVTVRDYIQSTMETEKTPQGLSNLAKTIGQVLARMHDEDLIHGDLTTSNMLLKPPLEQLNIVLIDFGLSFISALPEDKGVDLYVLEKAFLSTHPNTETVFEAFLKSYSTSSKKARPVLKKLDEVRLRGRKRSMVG
B2: Beta-taxilin (Homo sapiens), Q8N3L3 (parent)
chain: MEANHSEQLSAERQSTPPGDSSSLPSHNGLEKEDGQDSPTPVQPPEKEASVHPDISEELNRQLEDIINTYGSAASTAGKEGSARASEQPENAESPDNEDGDCEETTEEAGREPVASGEPPTVKEPVSNKEQKLEKKILKGLGKEANLLMQNLNKLQTPEEKFDFLFKKYAELLDEHRTEQKKLKLLQKKQVQIQKEKDQLQGEHSRAILARSKLESLCRELQRHNKTLKEEALQRAREEEEKRKEITSHFQSTLTDIQGQIEQQSERNMKLCQENTELAEKLKSIIDQYELREEHLDKIFKHRELQQKLVDAKLEQAQEMMKEAEERHKREKEYLLNQAAEWKLQAKVLKEQETVLQAQLTLYSGRFEEFQSTLTKSNEVFATFKQEMDKTTKKMKKLEKDTATWKARFENCNKALLDMIEEKALRAKEYECFVMKIGRLENLCRALQEERNELHKKIRDAEISEKDDQSQHNSDEEPESNVSVDQEIDAEEVNSVQTAVKNLATAFMIIHHPESTPHQSKETQPEIGSSQESADAALKEPEQPPLIPSRDSESPLPPLTPQAEAEGGSDAEPPSKASNSPAGLGAETQCEGLPVGAQADQASWKPEAEASGQAPQAPTEASLQKMEADVPAPACAAEEHVAAMVPACEPSRQPPRAAAEELPVGASAGPQPRNVADTNLEGVD
partner: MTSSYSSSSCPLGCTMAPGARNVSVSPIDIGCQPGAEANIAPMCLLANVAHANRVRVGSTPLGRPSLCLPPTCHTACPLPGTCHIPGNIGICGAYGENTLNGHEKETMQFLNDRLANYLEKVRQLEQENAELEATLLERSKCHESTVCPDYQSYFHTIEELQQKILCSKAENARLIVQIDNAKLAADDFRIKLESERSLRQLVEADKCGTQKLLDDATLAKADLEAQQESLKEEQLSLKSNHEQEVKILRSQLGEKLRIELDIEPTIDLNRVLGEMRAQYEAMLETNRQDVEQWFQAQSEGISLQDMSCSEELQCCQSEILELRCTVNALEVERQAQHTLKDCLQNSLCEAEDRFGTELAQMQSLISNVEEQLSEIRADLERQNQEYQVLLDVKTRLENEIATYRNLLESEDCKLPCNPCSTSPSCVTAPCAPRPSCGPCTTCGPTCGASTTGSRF
B3: Four and a half LIM domains protein 5 (Homo sapiens), Q5TD97 (parent)
chain: MTTAHFYCQYCTASLLGKKYVLKDDSPYCVTCYDRVFSNYCEECKKPIESDSKDLCYKDRHWHEGCFKCTKCNHSLVEKPFAAKDERLLCTECYSNECSSKCFHCKRTIMPGSRKMEFKGNYWHETCFVCENCRQPIGTKPLISKESGNYCVPCFEKEFAHYCNFCKKVITSGGITFCDQLWHKECFLCSGCRKDLCEEQFMSRDDYPFCVDCYNHLYANKCVACSKPISGLTGAKFICFQDSQWHSECFNCGKCSVSLVGKGFLTQNKEIFCQKCGSGMDTDI
partner: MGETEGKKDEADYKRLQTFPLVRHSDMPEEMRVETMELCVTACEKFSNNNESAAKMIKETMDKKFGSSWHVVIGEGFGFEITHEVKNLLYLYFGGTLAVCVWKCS
B4: Zinc finger CCHC domain-containing protein 10 (Homo sapiens), Q8TBK6 (parent)
chain: MATPMHRLIARRQAFDTELQPVKTFWILIQPSIVISEANKQHVRCQKCLEFGHWTYECTGKRKYLHRPSRTAELKKALKEKENRLLLQQSIGETNVERKAKKKRSKSVTSSSSSSSDSSASDSSSESEETSTSSSSEDSDTDESSSSSSSSASSTTSSSSSDSDSDSSSSSSSSTSTDSSSDDEPPKKKKKK
partner: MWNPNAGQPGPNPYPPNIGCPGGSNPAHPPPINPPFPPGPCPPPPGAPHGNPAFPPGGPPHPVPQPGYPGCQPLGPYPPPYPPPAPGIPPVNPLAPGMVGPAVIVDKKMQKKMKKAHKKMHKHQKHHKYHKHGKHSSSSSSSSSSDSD
B5: Fibronectin type III and SPRY domain-containing protein 2 (Homo sapiens), A1L4K1 (parent)
chain: MEEESGEELGLDRSTPKDFHFYHMDLYDSEDRLHLFPEENTRMRKVVQAEMANESRGAGDGKAQRDLQEEVDELVHLYGLEDDHELGDEFVDENIPRTGVSEYPPYMMKRRDPAREQRDWRLSGEAAEAEDLGFGGWGSAGQCQDLREAYRYTHGRASEEYECYVIPEEEDEEEAADVFCVTCKTPIRAFQKVFDEHKEHEVIPLNEALESAKDEIHKNMYKLEKQIIEMENFANHLEEVFITVEENFGKQEQNFESHYNEILETLAQKYEEKIQALGEKKKEKLEALYGQLVSCGENLDTCKELMETIEEMCHEEKVDFIKDAVAMADRLGKFLKTKTDVEISAQPEFEDQTLDFSDVEQLMGSINTIPAPSAPVINPQVPNSATGSSVRVCWSLYSDDTVESYQLSYRPVQDSSPGTDQAEFTVTVKETYCSVTNLVPNTQYEFWVTAHNRAGPSPSSERAVYMTAPSPPIIKTKEIRSCEEAVLICWESGNLNPVDSYTVELTQAESPEASGVTESVVGIPTCESVVQLQPGRSYIIYVRALNMGGPSVRSEPATVHTIGSYFRLNKDTCHPWLTISEDGLTAVRSERRTPARELSPSDTHFTRCVAVMGNLIPVRGHHYWEVEVDEHLDYRVGVAFADVRKQEDLGANCLSWCMRHTFASSRHKYEFLHNRTTPDIRITVPPKKIGILLDYEHSKLSFFNVDLSQHLYTFSCQLHEFVHPCFSLEKPGCLKVHNGISMPKHVTFY
B6: Cyclin-D1-binding protein 1 (Homo sapiens), O95273 (parent)
chain: MASATAPAAAVPTLASPLEQLRHLAEELRLLLPRVRVGEAQETTEEFNREMFWRRLNEAAVTVSREATTLTIVFSQLPLPSPQETQKFCEQVHAAIKAFIAVYYLLPKDQGITLRKLVRGATLDIVDGMAQLMEVLSVTPTQSPENNDLISYNSVWVACQQMPQIPRDNKAAALLMLTKNVDFVKDAHEEMEQAVEECDPYSGLLNDTEENNSDNHNHEDDVLGFPSNQDLYWSEDDQELIIPCLALVRASKACLKKIRMLVAENGKKDQVAQLDDIVDISDEISPSVDDLALSIYPPMCHLTVRINSAKLVSVLKKALEITKASHVTPQPEDSWIPLLINAIDHCMNRIKELTQSELEL
partner: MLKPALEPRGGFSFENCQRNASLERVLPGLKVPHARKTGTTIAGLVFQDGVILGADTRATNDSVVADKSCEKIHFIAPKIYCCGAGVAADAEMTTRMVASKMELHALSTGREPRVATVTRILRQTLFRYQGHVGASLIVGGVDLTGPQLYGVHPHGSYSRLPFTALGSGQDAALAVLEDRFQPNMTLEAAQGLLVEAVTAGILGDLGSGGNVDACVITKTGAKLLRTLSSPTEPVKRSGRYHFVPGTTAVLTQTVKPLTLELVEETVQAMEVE
B7: E3 ubiquitin-protein ligase DZIP3 (Homo sapiens), Q86Y13 (parent)
chain: MDSLPDEFFVRHPAVEDQRKEETENKLEKSSGQLNKQENDIPTDLVPVNLLLEVKKLLNAINTLPKGVVPHIKKFLQEDFSFQTMQREVAANSQNGEEIVPALTLRFLITQLEAALRNIQAGNYTAHQINIGYYLTLLFLYGVALTERGKKEDYTEAENKFLVMKMMIQENEICENFMSLVYFGRGLLRCAQKRYNGGLLEFHKSLQEIGDKNDHWFDIDPTEDEDLPTTFKDLLNNFIKTTESNIMKQTICSYLDCERSCEADILKNTSYKGFFQLMCSKSCCVYFHKICWKKFKNLKYPGENDQSFSGKKCLKEGCTGDMVRMLQCDVPGIVKILFEVVRKDEYITIENLGASYRKLISLKITDTDIRPKISLKFNTKDEMPIFKLDYNYFYHLLHIIIISGTDIVRQIFDEAMPPPLLKKELLIHKNVLESYYNHLWTNHPLGGSWHLLYPPNKELPQSKQFDLCLLLALIKHLNVFPAPKKGWNMEPPSSDISKSADILRLCKYRDILLSEILMNGLTESQFNSIWKKVSDILLRLGMMQEDIDKVKENPIENISLDYHQLSVYLGIPVPEIIQRMLSCYQQGIALQSITGSQRIEIEELQNEEEELSPPLMEYNINVKSHPEIQFAEINKDGTSIPSESSTESLKDLQEVKSKQRKKKKTKNKKNKDSKEDQVPYVVEKEEQLRKEQANPHSVSRLIKDDASDVQEDSAMEDKFYSLDELHILDMIEQGSAGKVTTDYGETEKERLARQRQLYKLHYQCEDFKRQLRTVTFRWQENQMQIKKKDKIIASLNQQVAFGINKVSKLQRQIHAKDNEIKNLKEQLSMKRSQWEMEKHNLESTMKTYVSKLNAETSRALTAEVYFLQCRRDFGLLHLEQTEKECLNQLARVTHMAASNLESLQLKAAVDSWNAIVADVRNKIAFLRTQYNEQINKVKQGFALSTLPPVQLPPPPPSPEILMQQFLGRPLVKESFFRPILTVPQMPAVCPGVVSATGQPRAPLMTGIAWALPAPVGDAVPPSAGLRSDPSIMNWERITDRLKTAFPQQTRKELTDFLRKLKDAYGKSLSELTFDEIVCKISQFIDPKKSQSQGKSVSNVNCVSPSHSPSQPDAAQPPKPAWRPLTSQGPATWEGASNPDEEEEEEEPCVICHENLSPENLSVLPCAHKFHAQCIRPWLMQQGTCPTCRLHVLLPEEFPGHPSRQLPKI

Variants of: B1
Settings: with prpk_human TP53RK
In the case of V248A, the “effect of a mutation on the interaction” value is reported as “with no effect”.

Variants of: B2
Settings: with krt38_human KRT38, O76015
For I527T, the “effect of a mutation on the interaction” value was “with no effect”.

Variants of: B3
Settings: with dnal4_human DNAL4, O96015
D24Y was tested, and the “effect of a mutation on the interaction” value was “with no effect”. In the case of R60W, the “effect of a mutation on the interaction” value is reported as “with no effect”. R204G was tested, and the “effect of a mutation on the interaction” value was “with no effect”. With M202L the “effect of a mutation on the interaction” value was “with no effect”.

Variants of: B4
Settings: with prr13_human PRR13, Q9NZ81
For S153P, the “effect of a mutation on the interaction” value was “with no effect”.

Variants of: B5
Settings: with cor1a_human CORO1A
For E720K, the “effect of a mutation on the interaction” value was “with no effect”. K333T was tested, and the “effect of a mutation on the interaction” value was “with no effect”.

Variants of: B6
Settings: with psb10_human PSMB10, P40306
I277T was tested, and the “effect of a mutation on the interaction” value was “disrupting interaction strength”.

Variants of: B7
Settings: with ub2e2_human UBE2E2, Q96LR5
Sequence of ub2e2_human UBE2E2, Q96LR5 (Q96LR5 whole entry): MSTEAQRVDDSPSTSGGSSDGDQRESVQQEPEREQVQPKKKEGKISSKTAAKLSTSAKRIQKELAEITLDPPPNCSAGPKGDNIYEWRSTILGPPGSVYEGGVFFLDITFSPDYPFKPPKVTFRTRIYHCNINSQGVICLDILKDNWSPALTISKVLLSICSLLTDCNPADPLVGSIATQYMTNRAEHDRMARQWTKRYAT
F767L was tested, and the “effect of a mutation on the interaction” value was “with no effect”.

Variants of: B7
Settings: with zch10_human ZCCHC10, Q8TBK6
For F767L, the “effect of a mutation on the interaction” value was “with no effect”.
